{"source": "patent US10023909", "target": "DNMT1 (Mus musculus) (UniProt P13864)", "sequence (P13864 other isoform, or with tags, fused parts or gaps)": "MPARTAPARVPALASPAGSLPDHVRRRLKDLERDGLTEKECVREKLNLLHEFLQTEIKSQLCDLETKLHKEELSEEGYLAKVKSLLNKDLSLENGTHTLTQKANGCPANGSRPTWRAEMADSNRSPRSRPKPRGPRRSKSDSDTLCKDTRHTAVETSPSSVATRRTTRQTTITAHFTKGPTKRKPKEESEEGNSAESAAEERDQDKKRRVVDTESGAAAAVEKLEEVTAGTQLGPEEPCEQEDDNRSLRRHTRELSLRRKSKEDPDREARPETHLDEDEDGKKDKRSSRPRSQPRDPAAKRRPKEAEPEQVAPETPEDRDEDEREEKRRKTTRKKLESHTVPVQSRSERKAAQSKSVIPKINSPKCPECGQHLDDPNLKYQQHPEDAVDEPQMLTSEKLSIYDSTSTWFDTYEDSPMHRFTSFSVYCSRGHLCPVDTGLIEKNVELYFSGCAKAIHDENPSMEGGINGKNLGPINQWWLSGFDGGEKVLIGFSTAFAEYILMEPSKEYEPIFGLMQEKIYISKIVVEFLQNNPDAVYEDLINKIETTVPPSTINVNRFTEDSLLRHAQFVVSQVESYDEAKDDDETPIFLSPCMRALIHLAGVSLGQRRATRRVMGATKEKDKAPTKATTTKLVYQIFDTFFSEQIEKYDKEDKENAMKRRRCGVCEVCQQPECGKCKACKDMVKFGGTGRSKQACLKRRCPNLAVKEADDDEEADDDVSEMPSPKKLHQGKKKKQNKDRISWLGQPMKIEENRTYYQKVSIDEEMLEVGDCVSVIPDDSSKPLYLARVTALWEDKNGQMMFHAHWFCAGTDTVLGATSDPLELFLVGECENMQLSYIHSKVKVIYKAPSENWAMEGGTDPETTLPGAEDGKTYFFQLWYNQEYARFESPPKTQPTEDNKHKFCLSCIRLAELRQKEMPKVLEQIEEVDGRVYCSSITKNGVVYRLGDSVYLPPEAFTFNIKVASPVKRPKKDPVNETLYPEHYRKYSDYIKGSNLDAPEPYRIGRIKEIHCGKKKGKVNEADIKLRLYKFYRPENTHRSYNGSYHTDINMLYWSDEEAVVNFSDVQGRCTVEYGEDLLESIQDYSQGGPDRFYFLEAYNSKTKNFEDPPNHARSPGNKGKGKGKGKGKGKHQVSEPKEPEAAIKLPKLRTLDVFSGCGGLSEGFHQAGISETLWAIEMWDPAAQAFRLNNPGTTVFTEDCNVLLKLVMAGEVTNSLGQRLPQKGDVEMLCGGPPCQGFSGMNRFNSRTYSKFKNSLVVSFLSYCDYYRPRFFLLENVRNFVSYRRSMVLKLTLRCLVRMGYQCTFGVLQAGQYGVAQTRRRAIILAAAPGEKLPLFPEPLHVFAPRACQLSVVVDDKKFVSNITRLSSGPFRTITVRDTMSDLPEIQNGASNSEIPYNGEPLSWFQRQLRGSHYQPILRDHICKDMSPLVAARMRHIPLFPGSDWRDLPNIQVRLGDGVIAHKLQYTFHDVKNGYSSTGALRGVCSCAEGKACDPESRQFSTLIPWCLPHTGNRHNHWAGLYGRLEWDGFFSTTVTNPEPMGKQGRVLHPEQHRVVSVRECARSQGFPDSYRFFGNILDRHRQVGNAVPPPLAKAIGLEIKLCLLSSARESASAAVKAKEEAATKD", "conditions": "5mC and 5hmC on top strand only, SAM, 37 C, 4 h", "note": "Where two headings read alike, the source gives them in different places."}
{"substance": "112 bp 5hmC:C:5meC top/unmodified bottom duplex, unmodified CpG site", "values": [{"measurement": "activity", "setting": "no methylation by bisulfite sequencing", "value": 0, "unit": "%"}]}
{"substance": "112 bp 5hmC:C:5meC top/unmodified bottom duplex, hemi-5hmC CpG site", "values": [{"measurement": "activity", "setting": "no methylation across from 5hmC", "value": 0, "unit": "%"}]}
{"substance": "112 bp 5hmC:C:5meC top/unmodified bottom duplex, hemi-5meC CpG site", "values": [{"measurement": "activity", "setting": "methylation by bisulfite sequencing (14 of 16 clones)", "value": 87.5, "unit": "%"}]}
